The values that follow are results of earlier work, collected in paper PMC2635555.

For orientation: Kd means the concentration at which binding is half-saturated.

The data set has as its target Histone H3 (H3K4me0) N-terminal tail (Homo sapiens) (UniProt P68431).

Chain of AIRE PHD1 (O43918 296-343): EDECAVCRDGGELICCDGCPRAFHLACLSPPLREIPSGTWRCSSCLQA

AIRE PHD1 (from UniProt O43918): the Kd is 5 µM.
